Where two headings read alike, the source gives them in different places.
Assays:
[1] = molecular target: T1, SARS-CoV-2 RBD (Biotinylated SARS-CoV-2 RBD, Acrobio 시스템) (SARS-CoV-2, UniProt P0DTC2 319-537)
SARS-CoV-1 RBD = SARS-CoV-1 RBD (SARS-CoV-1, UniProt P59594 306-527); assay: binding measurement of Fig. 20; method not given
[2] = molecular target: T1, SARS-CoV-2 RBD (Biotinylated SARS-CoV-2 …); assay: BLI; IgG1 made in CHO cells

B1: D27 항체 (designed full-length antibody D27) (antibody, V domains shown)
VH: QVQLQQSGAEVKKPGSSVKVSCKASGGTFGNWSISWVRQAPGQGLEWMGGIDPSRGEATYAQKFQGRVTITTDESTSTAYMELSSLRSEDTAVYYCARETEQGGMDVWGQGTTVTVSS
VL: SYELTQPPSVSVAPGKTARITCGGNNIGRKSVHWYQQKPGQAPVLVVYDDSDRPSGIPERFSGSNSGNTATLTISRVEAGDEADYYCQVYDLFSDYVFGTGTKVEIK
- Kd [1]: 175 nM

B2: D27LEY (IgG1 형태) (antibody, V domains shown)
VH: QVQLQQSGAEVKKPGSSVKVSCKASGGTFGNWSISWVRQAPGQGLEWMGGIAPGRGEATYAQKFQGRVTITTDESTSTAYMELSSLRSEDTAVYYCARETWYTSGGMDVWGQGTTVTVSS
VL: SYELTQPPSVSVAPGKTARITCGGNNIGRKSVHWYQQKPGQAPVLVVYDDSDRPSGIPERFSGSNSGNTATLTISRVEAGDEADYYCQVYDLWSSDYVFGTGTKVTVL
- Kd (SARS-CoV-1 RBD): < 1 pM

B3: D27LE (IgG1 형태) (antibody, V domains shown)
VH: QVQLQQSGAEVKKPGSSVKVSCKASGGTFGNWSISWVRQAPGQGLEWMGGIDPSRGEATYAQKFQGRVTITTDESTSTAYMELSSLRSEDTAVYYCARETWYTSGGMDVWGQGTTVTVSS
VL: SYELTQPPSVSVAPGKTARITCGGNNIGRKSVHWYQQKPGQAPVLVVYDDSDRPSGIPERFSGSNSGNTATLTISRVEAGDEADYYCQVYDLWSSDYVFGTGTKVTVL
- Kd [2]: 7.1 nM
